Biological target: T1, 4.1R-CTD64 (last 64 amino acids of the C-terminal domain of human protein 4.1R) (human, 15N labelled)
T1 construct: protein 4.1R, human, last 64 amino acids (part of the C-terminal domain, CTD); Cloned with NdeI into a modified pET15b with a TEV site; also called 4.1R-CTD64 subdomain; 64 amino acids subdomain
T1 chain: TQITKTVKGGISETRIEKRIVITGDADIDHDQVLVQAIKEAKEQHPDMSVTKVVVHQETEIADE
Test: NMR titration; 15N labelled 4.1R-CTD64 (0.1 mM, 100 mM Na2HPO4, 90% H2O/10% D2O) titrated with NuMA1 peptide up to 20:1, followed by 1H-15N HSQC, pH 4.9, 25°C; chemical shift perturbation analysis
Details: both partners purified

binding result: binds
B1: NuMA1 interacting peptide (N1I), residues 1785-1810 of NuMA1 (peptide)
peptide: Ac-DSGRKTRSARRRTTQIINITMTKKLD-NH2
notes: also called NI1; non-phosphorylated NuMA peptide; source: synthetic peptide, bought: Caslo (Denmark)

From PMC2834593, “NMR characterisation of the minimal interacting regions of centrosomal proteins 4.1R and NuMA1: effect of phosphorylation” (BMC Biochemistry, 2010)
